Test results published in publication PMC2194782.

Molecular target: human plasmin (formed from plasminogen incubated with equimolar SAK or RGD-SAK) (human)

RGD-SAK (staphylokinase with K35 replaced by Arg) (from UniProt P68802 28-163) (natural protein)
kcat/Km of plasminogen activation by the preformed equimolar RGD-SAK-plasmin complex, monitored with S-2251: 37000 M⁻¹ s⁻¹

staphylokinase (SAK) (from UniProt P68802 28-163) (natural protein)
kcat/Km of plasminogen activation by the preformed equimolar SAK-plasmin complex, monitored with S-2251: 33000 M⁻¹ s⁻¹
